Tests used:
[1] = tested on: FDB muscle fibers from mg53−/− mice; experiment: FM1-43 dye entry after UV-laser damage, mg53−/− FDB muscle fibers; type: cell-based; conditions: mg53−/− fibers; +Zn-HPT
Procedure: (§1) FIG. 20. Protective effect of zinc on membrane repair is lost in mg53−/− skeletal muscle. (a) individual flexor digitorum brevis (FDB) muscle fibers were isolated from wild type (WT) mice (3-6 months). A strong UV laser was applied to the FDB fiber that caused local damage to the muscle (arrow). Entry of FM1-43 fluorescent dye (2.5 μM) was used as an indicator for the measurement of membrane repair capacity. The images were taken 200 s following UV irradiation (control). […] (d) Schematic diagram of zinc-binding motifs in MG53. The amino-terminus of MG53 contains two putative zinc-binding motifs: one located at the RING motif (a.a. 1-56, human cDNA), and the other located at the B-box motif (a.a. 86-117, human cDNA). The specific amino acids that participate in zinc-binding are indicated.
as §1, with “Protective” for “FIG. 20. Protective”, “To access membrane repair capacity,” for “(a)”, “months) (FIG. 20a).” for “months).”, “Summary data for panel a and b (FIG. 20c). […]” for “(d)”, “indicated (FIG. 20d).” for “indicated.”

[2] = tested on: C2C12 cells expressing GFP-MG53; experiment: GFP-MG53 redistribution on agent application without injury; type: cell-based, murine; conditions: 20 μM Zn-HPT, prolonged incubation (15 min)
Source text: Extracellular zinc entry is essential for MG53-mediated vesicle translocation to acute membrane injury sites. To follow the process of intracellular vesicle translocation associated with repair of acute membrane damage, GFP-MG53 fusion protein was expressed in C2C12 myoblast cells (FIG. 21a). […] Acute injury of the cell generated by penetration of a microelectrode caused rapid translocation of MG53-containing vesicles at the injury site (arrow, right panel). […] C2C12 cells transiently transfected with GFP-MG53 was incubated with 20 μM Zn-HPT. Under control condition (0 min), GFP-MG53 was distributed in the cytosol, as well as intracellular vesicles (FIG. 21d).
An active ingredient from notoginseng can facilitate MG53-membrane repair function. GFP-MG53 was expressed in C2C12 cells and then these cells were perfused with an alcohol extract from notoginseng. […] Based on this observation, we reasoned that a therapeutic approach with the combination of MG53 and notoginseng may provide additive protective effects in preventing both inflammation and membrane damage to the cells, and thus can improve the function of MG53 when applied in tandem with recombinant MG53 protein or when applied alone as a supplement of pharmaceutical.

[3] = tested on: FDB muscle fibers from wild type (WT) mice; experiment: FM1-43 dye entry after UV-laser damage, wild type FDB muscle fibers; type: cell-based; conditions: WT fibers; 2 μM zinc-ionophore
Procedure: as §1
as §1, with “Protective” for “FIG. 20. Protective”, “To access membrane repair capacity,” for “(a)”, “months) (FIG. 20a).” for “months).”, “Summary data for panel a and b (FIG. 20c). […]” for “(d)”, “indicated (FIG. 20d).” for “indicated.”

[4] = tested on: Hela cervical epithelial cells; experiment: Resealing after glass bead damage, Hela; type: cell-based; conditions: glass beads
Source text: Effects of MG53 are specific to the function of the protein.

[5] = tested on: HEPM cells; experiment: LDH release after electroporation, HEPM; type: cell-based, human; conditions: 10 ug/mL, extracellular; various field strengths
Procedure: (§2) Recombinant MG53 can protect gum lining cells from cell membrane damage. (a) HEPM cells (5×10^4) were treated with 10 ug/mL recombinant human MG53 or vehicle control and then electroporated at various field strengths (FIG. 36). […] (b) MG53 or a vehicle control was added to recombinant LDH to generate standard curves for LDH activity.

[6] = tested on: HEK293 cells; experiment: LDH release after electroporation, HEK293; type: cell-based, human; conditions: 10 ug/mL, extracellular; various field strengths
Procedure: Genetic overexpression of MG53 can prevent membrane damage. Human embryonic kidney (HEK293) cells were transfected with RFP-MG53 or RFP and then electroporated with fields of varying strength (FIG. 32). The amount of membrane damage was measured by assessing the amount of lactate dehydrogenase (LDH) that leaks into the extracellular media out of holes in the plasma membrane produced by electroporation. The more damage that occurs to the membrane, the higher the reading on the LDH assay will be. […] Thus, expression of exogenous MG53 in non-muscle cells can increase the capacity for cell membrane repair in such non-muscle cells.
as §2, with “kidney” for “gum lining”, “HEK293” for “HEPM”, “(8×10^4)” for “(5×10^4)”, “35).” for “36).”

[7] = tested on: HEK293 cells; experiment: LDH release after glass microbead damage, HEK293; type: cell-based, human; conditions: glass microbeads
Procedure: Recombinant MG53 can protect kidney cells from mechanical cell membrane damage. HEK293 cells (8×10^4) were treated with glass microbeads to induce mechanical damage (FIG. 37). Different does of recombinant human MG53 or vehicle control was applied to the samples when glass beads were added to the media. Cells were rotated on an orbital shaker and then the supernatant was analyzed for LDH levels.
(§3) Externally applied recombinant MG53 requires phosphatidylserine (PS) binding to reseal damaged membranes. HEK293 cells were treated with recombinant human MG53 or vehicle and them damaged by shaking in the presence of glass microbeads (black bars) (FIG. 40). Membrane damage is measured by LDH release from cells that is recorded by colormetric assay recorded at 488 nm. […] Thus, MG53 must be able to bind exposed PS on damaged cells in order to facilitate membrane repair. * p<0.05
as §3, with “HEK293” for “Externally applied recombinant MG53 requires phosphatidylserine (PS) binding to reseal damaged membranes. HEK293”, “41).” for “40).”

[8] = tested on: HEPM cells; experiment: LDH release after LPS treatment; type: cell-based, human; conditions: LPS 1 mg/mL, 24 hours, co-incubation
Source text: Lipopolysaccarides can induce membrane damage in HEPM cells that can be prevented by exposure to MG53.

[9] = PIP2-Strip lipid dot blot; type: binding; conditions: 1 μg/ml
[10] = tested on: Human IB3 airway epithelial cells; experiment: LDH release after glass bead damage, IB3; type: cell-based; conditions: glass beads; external protein
Procedure: External MG53 can reseal to membrane damage in airway epithelial cells. Human IB3 airway epithelial cells were treated with external recombinant human MG53 or vehicle control and then exposed to mechanical membrane damage by glass beads (FIG. 48).

[11] = tested on: E3-ligase activity of MG53; experiment: In vitro ubiquitination with ATP, ubiquitin, E1 and E2 enzymes; type: biochemical; conditions: Ubc4 or UbcH5 as E2
Procedure: To test whether MG53 can catalyze ubiquitination in vitro, we prepared a recombinant maltose-binding protein (MBP) fusion protein for MG53. MBP-MG53 was incubated with ATP, ubiquitin, E1 and E2 enzymes, and subjected to immunoblotting with the anti-MBP antibody. […] The exclusion of either ubiquitin, E1 or E2 (UbcH5) from the assay abolished the appearance of such ladders, confirming that the modification acquired by MBP-MG53 was indeed auto-ubiquitination. […] Thus, MG53 is a Ring-finger type ubiquitin ligase that couples with Ubc4/5 sub-family of E2 enzymes.

[12] = tested on: C2C12 cells expressing GFP-MG53; experiment: Repair of acute membrane damage: translocation to microelectrode injury site; type: cell-based, murine; conditions: C2C12 cells
Procedure: To follow the process of intracellular vesicle translocation associated with repair of acute membrane damage, GFP-MG53 fusion protein was expressed in C2C12 myoblast cells (FIG. 21a). […]
Cell culture—The C2C12 murine myoblast cell line used for all studies was purchased from the American Type Culture Collection (Manassas, Va.). Cells were grown in a humidified environment at 37° C. and 5% CO2 in DMEM medium for C2C12 or Ham's F12 medium for CHO cells supplemented with 10% fetal bovine serum, 100 units/ml penicillin and 100 ug/ml streptomycin. In order to induce myotube differentiation, C2C12 myoblasts were grown to confluence and the medium was switched to DMEM containing 2% horse serum, penicillin (100 U/ml), streptomycin (100 μg/ml). For transient transfections, C2C12 myoblasts or CHO cells were plated at 70% confluence in glass-bottom dishes. After 24 hours, cells were transfected with plasmids described above using GeneJammer reagent (Stratagene). Cells were visualized by live cell confocal imaging at 24-48 hours after transfection or at times indicated for individual experiments. In some experiments, C2C12 myoblasts were allowed to differentiate into myotubes for the indicated time before observation.
Live cell imaging—To monitor intracellular trafficking of GFP-MG53 either CHO or C2C12 cells were cultured in glass-bottom dishes (Bioptechs Inc.) and transfected with the plasmids described above. Fluorescence images (512×512) were captured at 3.18 s/frame using a BioRad 2100 Radiance laser scanning confocal microscope with a 63×1.3NA oil immersion objective.

[13] = tested on: mg53−/− myotubes; experiment: Membrane repair in transfected mg53−/− myotubes; type: cell-based, mice; conditions: primary cultured mg53−/− myotubes
Source text: The entry of FM4-64, a red-shifted variant of FM1-43, was used as an index of membrane repair capacity in mg53−/− myotubes transfected with GFP-MG53 and GFP-C242A. Following UV-bleaching of the green fluorescence, rapid translocation of GFP-MG53 took place at the injury site, whereas GFP-C242A remained static due to its defective oligomerization properties (FIG. 16E, 17A).
Similar defects with GFP-C29L were also observed in C2C12 myotubes (FIG. 18e, middle).

## [O-]n1ccccc1=S.[O-]n1ccccc1=S.[Zn+2] [Zn-HPT, Zn-1-hydroxypyridine-2-thine]
[1]
  membrane repair capacity (FM1-43 dye entry): did not produce protective effect on membrane repair
[2]
  redistribution of GFP-MG53: caused redistribution of GFP-MG53 toward the cell surface membrane and the intracellular membrane compartments
[3]
  membrane repair capacity (FM1-43 dye entry): increased membrane repair capacity

B1: recombinant human MG53: recombinant mitsugumin53 protein, muscle-specific TRIM family protein, applied extracellularly (protein)
chain: MSAAPGLLHQELSCPLCLQLFDAPVTAECGHSFCRACLGRVAGEPAADGTVLCPCCQAPTRPQALSTNLQLARLVEGLAQVPQGHCEEHLDPLSIYCEQDRALVCGVCASLGSHRGHRLLPAAEAHARLKTQLPQQKLQLQEACMRKEKSVAVLEHQLVEVEETVRQFRGAVGEQLGKMRVFLAALEGSLDCEAERVRGEAGVALRRELGSLNSYLEQLRQMEKVLEEVADKPQTEFLMKYCLVTSRLQKILAESPPPARLDIQLPIISDDFKFQVWRKMFRALMPALEELTFDPSSAHPSLVVSSSGRRVECSEQKAPPAGEDPRQFDKAVAVVAHQQLSEGEHYWEVDVGDKPRWALGVIAAEAPRRGRLHAVPSQGLWLLGLREGKILEAHVEAKEPRALRSPERRPTRIGLYLSFGDGVLSFYDASDADALVPLFAFHERLPRPVYPFFDVCWHDKGKNAQPLLLVGPEGAEA
[4]
  membrane resealing: effective at resealing damage
[4]; recombinant protein boiled
  membrane resealing: can no longer facilitate membrane resealing
[5]
  membrane damage (LDH) from electroporation: can prevent damage from electroporation
[6]
  membrane damage (LDH) from electroporation: can prevent damage from electroporation
[7]
  saturating dose: ~10 µg/mL
[7]; different doses
  mechanical membrane damage (LDH levels): can prevent mechanical membrane damage
[8]
  prevention of LPS induced damage (LDH release): can prevent damage to HEPM cells produced by LPS
[9]
  lipid binding: specifically binds phosphatidylserine (PS) and not other membrane lipids
[10]
  cell membrane damage (LDH release): could prevent cell membrane damage due to mechanical damage

B2: C29L: MG53 mutant, Cys-29 in the Ring-finger motif replaced with leucine; GFP fusion, MBP fusion in b268 (protein)
chain: MSAAPGLLRQELSCPLCLQLFDAPVTAELGHSFCRACLIRVAGEPAADGTVACPCCQAPTRPQALSTNLQLSRLVEGLAQVPQGHCEEHLDPLSIYCEQDRTLVCGVCASLGSHRGHRLLPAAEAQARLKTQLPQQKMQLQEACMRKEKTVAVLEHQLVEVEETVRQFRGAVGEQLGKMRMFLAALESSLDREAERVRGDAGVALRRELSSLNSYLEQLRQMEKVLEEVADKPQTEFLMKFCLVTSRLQKILSESPPPARLDIQLPVISDDFKFQVWKKMFRALMPALEELTFDPSSAHPSLVVSSSGRRVECSDQKAPPAGEDTRQFDKAVAVVAQQLLSQGEHYWEVEVGDKPRWALGVMAADASRRGRLHAVPSQGLWLLGLRDGKILEAHVEAKEPRALRTPERPPARIGLYLSFADGVLAFYDASNPDVLTPIFSFHERLPGPVYPIFDVCWHDKGKNAQPLLLVGPEQEQA
modifications: left off: large carriers
notes: MG53 mutant, Cys-29 in the Ring-finger motif replaced with leucine; GFP fusion, MBP fusion
[11]
  ubiquitination / intrinsic E3-ligase activity: significantly reduced
[12]; 2 μM Zn-HPT, listed as GFP-C29L
  Membrane Repair (+Zn-HPT): partially rescue the movement
[12]; acute membrane damage
  translocation to injury site and membrane repair function of GFP fusion protein: immobile and ineffective in repair of membrane injury
[12]; extracellular solution with nominal free zinc, listed as GFP-C29L
  Membrane Repair (−Zn-HPT): defective movement toward the acute injury site
[13]
  translocation to the plasma membrane following injury: remained generally unresponsive to acute cell injury
